Experimental data from patent US20110065645A1, “Compositions and Methods for Modulating Neuron Degeneration and Neuron Guidance” (The Regents of the University of California, priority 2009, published 2011).
Peptide text beside a SMILES is read from it. * marks the point of attachment. Cbz = O=C(OCc1ccccc1)*

Key:
Type in all cases: cell-based
Fzd3 = target: T1, Fzd3 (Mus musculus, UniProt Q61086); assay: Surface biotinylation and avidin immunoprecipitation of Fzd3 in HEK293T cells; settings: HEK293T co-transfection, Vgl2 value in the presence of Dvl1
T1 construct: expressed in transfected cells; host or cells: HEK293T
T1 sequence (Q61086 23-666): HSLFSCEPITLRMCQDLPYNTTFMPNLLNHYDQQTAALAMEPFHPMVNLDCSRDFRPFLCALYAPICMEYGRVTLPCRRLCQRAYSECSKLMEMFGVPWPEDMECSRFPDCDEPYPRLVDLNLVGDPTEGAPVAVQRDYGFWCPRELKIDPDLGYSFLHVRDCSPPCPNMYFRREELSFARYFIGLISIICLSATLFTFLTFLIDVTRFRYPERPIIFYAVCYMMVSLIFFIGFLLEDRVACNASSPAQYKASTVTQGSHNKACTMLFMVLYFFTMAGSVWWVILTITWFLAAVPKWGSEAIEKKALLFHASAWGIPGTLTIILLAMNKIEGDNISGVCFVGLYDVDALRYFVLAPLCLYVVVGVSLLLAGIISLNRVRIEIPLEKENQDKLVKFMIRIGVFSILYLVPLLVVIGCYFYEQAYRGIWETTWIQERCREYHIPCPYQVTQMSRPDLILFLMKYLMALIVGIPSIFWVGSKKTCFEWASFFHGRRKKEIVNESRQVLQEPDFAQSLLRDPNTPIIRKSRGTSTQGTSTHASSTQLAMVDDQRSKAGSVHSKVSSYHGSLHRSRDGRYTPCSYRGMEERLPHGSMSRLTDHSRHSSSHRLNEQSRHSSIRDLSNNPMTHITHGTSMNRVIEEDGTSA
Source text: Dvl and Vgl have antagonistic functions on Fzd3 phosphorylation. […] We transfected Fzd3-mCherry in HEK293T cells then surface biotinylated and immunoprecipitated (IP) the surface molecules with strepavidin-conjugated beads to obtain membrane-localized proteins. […] We tested whether these two Fzd3 bands represent phosphorylation states of the Frizzled3 protein, one being phosphorylated/hyperphosphorylated Fzd3 (p-Fzd3) and the other non-phosphorylated Fzd3. […] Phosphorylation of Fzds has been shown previously in Xenopus oocytes
It has been proposed that Frizzled internalization is necessary for PCP signaling and phenotypes (Gagliardi et al., 2008; Yu et al., 2007). However, it has never been directly tested whether the cell surface level of Fzd, the Wnt-PCP receptor, changes upon Wnt addition. By using our surface biotinylation and immunoprecipitation with avidin, we show here, 15 minutes after Wnt addition, cell surface level of Fzd3-EGFP is diminished (FIG. 18C, Avidin IP, lane 3 anti-EGFP IB). […] This Fzd3 receptor oscillation from and to the membrane appeared to be a Wnt-Fzd specific effect because a non-Wnt binding receptor, such as the Insulin receptor stayed the same throughout the Wnt stimulation (FIG. 18C, Avidin IP, anti-Insulin Rβ IB). The Wnt-dependent Fzd3 oscillation is quantified in FIG. 18D (cross symboled line). […] In addition, PCP components appeared to effect this Wnt dependent oscillation of Fzd3 to and from the membrane. When Dvl1 is over expressed with Fzd3, we found within 30 minutes Fzd3 is unable to be internalized (FIG. 25B, lanes 5-7 and line). However, upon the introduction of Vangl2 into the transfection mix, Fzd3 oscillation is resumed (FIG. 25B, lanes 8-10 and circle symboled line).
Surface biotinylation and immunopreciptiation. 30 hours after transfection with the indicated constructs into HEK293T cells (FuGene, Roche), followed by 8-hour incubation in Optimem and subsequent bath application of recombinant Wnt5a (R&D Systems), surface proteins were subsequently labeled on ice with 1 mg/ml of Sulfo-NHS-LC-Biotin reagent (Pierce). The cell lysates were collect over a period of 30 minutes on ice in the following lysis buffer: 20 mM Tris pH7.6, 150 mM NaCl, 1% Triton, 0.1% SDS, 2.5 mM EDTA, 2.5 mM EGTA, protease Inhibitors (Roche). For the membrane immunoprecipitation, 600 ug of protein extracts were incubated overnight and retrieved by NeutrAvidin-coated Agarose beads (Pierce), the bound fraction was boiled and loaded on SDS-PAGE gel and analyzed by western blot analysis. To visualize the input amount 20 ug of total lysate was loaded, and for the Avidin IPs the total amount was loaded for western blot analysis. The following primary antibodies were used for the immunoblots: α-Frizzled3 (Wang et al., 2006), α-Vangl2 (Santa Cruz), α-mCherry/DsRed (Clontech), α-Jun (Cell Signaling), α-phospho-Jun (Cell Signaling), α-JNK (Cell Signaling), α-phospho-JNK (Cell Signaling), α-Flag (Sigma), α-GAPDH (Chemicon), α-Insulin Rβ (Santa Cruz).

β-catenin = β-catenin immunostaining in commissural axon growth cones; settings: bath application; LiCl 2 mM
Source text: To understand how atypical PKC/Par pathway regulates axon guidance, we set out to determine the subcellular localization of aPKC, their substrates and downstream cellular effectors. […] Thus, our high-resolution confocal imaging detects a tendency of β-catenin being concentrated to one side of the growth cone (FIG. 9A). It is possible that there is low level of Wnt proteins in the culture (many neurons express Wnts). […] Therefore, it is also possible that intrinsic aPKC signaling can create chirality within the growth cone with out extrinsic signals. Such intrinsic polarity may then robustly regulate cellular morphology upon directional instructions from the environment such as a Wnt gradient. It is well known that GSK3β phosphorylates β-catenin, which then leads to proteosome-mediated degradation of β-catenin. And it is also known that GSK3β is phosphorylated and inhibited by PKCζ^(1,2). Therefore, inhibiting GSK3β or the proteosome activity generally should increase β-catenin level throughout the growth cone, canceling the asymmetry. […] We are now testing the hypothesis that Wnt proteins may locally activate PKCζ, which then inhibits GSK3β and locally stabilizes β-catenin, which is part of the asymmetric cellular mechanism leading to directional choice of a growth cone. We examine the localization of β-catenin in post-crossing commissural axon growth cones in the “post-crossing” assay and “open-book” assays.

cortical neurons = assay: Cortical neuron death/survival assay under PKCζ inhibition (Tuj1, TUNEL, DAPI staining); settings: for cell death induced by PKC inhibition: pretreatment before pseudosubstrate peptide
Source text: 1. PKCζ is required for survival of cortical neurons. E15.5 cortical neurons were dissociated and cultured for 2 days in the presence of various concentrations of a cell membrane penetrating myristoylated peptide derived in the pseudosubstrate domain of PKC (FIGS. 12A-12D). This peptide is a specific inhibitor of PKCζ.
2. Axon degeneration procedes cell body death when PKC is inhibited. We examined the timing of axon degeneration and cell body death. […] The death induced by PKCζ inhibition is much faster than Aβ peptide induced neuronal death (FIG. 12D), probably because the PKCζ is an essential kinase and peptide inhibition causes instant death, whereas Aβ has to bind to cell surface receptor and trigger a signaling cascade to cause death, which requires a longer time.
3. Wnts are trophic factors for cortical neurons. […] Nuclear shrinkage (pyknosis) is a hallmark of neuronal cell death. Using DAPI staining, we can visualize the cell nuclei (FIG. 14B). […] Initial cortical axons and dendrite form and grow but axons start to disintegrate at E18.5 (FIG. 14D, from Wang et al 2006),^(13) (FIGS. 12F, 12K). Based on our preliminary results, we propose that Wnts are not only axon guidance molecules but also regulate neuronal survival and axon degeneration acting via PKC (FIG. 15).
3. Survival and cell death assays for screening of monoclonal antibodies and small compounds. We use the same cell death/survival assay as described in FIGS. 12A-14D and use microtubule staining to analyze the integrity of microtubules, DAPI stain to measure the size of cell nuclei and TUNEL staining to assay cell death. Microtubule disassembly is quantified by staining intensity of Tuj1 and Tau antibodies. The size of cell nuclei is binned into difference sizes and the distribution of the nuclei size is used as quantification of pyknosis (FIG. 14C).

Row | Molecule | Fzd3 at the membrane relative to Fzd3-mCherry transfected alone (Fzd3) [fold] | β-catenin level and asymmetry in the growth cone (β-catenin) | cell death induced by PKC inhibition (cortical neurons) | further results
1 | Vgl2: Vang Gogh Like protein 2 expressed by transfection in HEK293T cells | 2 |  |  | 
2 | [Cl-].[Li+] [LiCl, reference compound] |  | elevated the level of β-catenin throughout the growth cone | block/reduce the cell death | pyknosis (nuclear shrinkage, DAPI staining, Image J) (cortical neurons; neuronal death induced by PKCζ inhibition): partially blocked
3 | CC(C)C[C@@H](C=O)NC(=O)[C@H](CC(C)C)NC(=O)[C@H](CC(C)C)NC(=O)OCc1ccccc1 [MG132, reference compound] (Cbz-Leu-Leu-Leu-aldehyde) |  | elevated the level of β-catenin throughout the growth cone |  | 
4 | Dvl1: Dvl1-EGFP expressed by transfection in HEK293T cells (protein, left off: large carriers, Dvl1-EGFP expressed by transfection in HEK293T cells) MAETKIIYHMDEEETPYLVKLPVAPERVTLADFKNVLSNRPVHAYKFFFKSMDQDFGVVKEEIFDDNAKLPCFNGRVVSWLVLAEGAHSDAGSQGTDSHTDLPPPLERTGGIGDSRPPSFHPNVASSRDGMDNETGTESMVSHRRERARRRNRDEAARTNGHPRGDRRRDLGLPPDSASTVLSSELESSSFIDSDEEDNTSRLSSSTEQSTSSRLVRKHKCRRRKQRLRQTDRASSFSSITDSTMSLNIITVTLNMERHHFLGISIVGQSNDRGDGGIYIGSIMKGGAVAADGRIEPGDMLLQVNDVNFENMSNDDAVRVLREIVSQTGPISLTVAKCWDPTPRSYFTIPRADPVRPIDPAAWLSHTAALTGALPRYGTSPCSSAITRTSSSSLTSSVPGAPQLEEAPLTVKSDMSAIVRVMQLPDSGLEIRDRMWLKITIANAVIGADVVDWLYTHVEGFKERREARKYASSMLKHGFLRHTVNKITFSEQCYYVFGDLCSNLASLNLNSGSSGASDQDTLAPLPHPSVPWPLGQGYPYQYPGPPPCFPPAYQDPGFSCGSGSAGSQQSEGSKSSGSTRSSHRTPGREERRATGAGGSGSESDHTVPSGSGSTGWWERPVSQLSRGSSPRSQASAVAPGLPPLHPLTKAYAVVGGPPGGPPVRELAAVPPELTGSRQSFQKAMGNPCEFFVDIM | 3 |  |  | Fzd3 at the membrane relative to Fzd3-mCherry transfected alone (Fzd3; listed as Dvl): approximately 3 fold
5 | Wnt7a: recombinant Wnt7a (protein, UniProt O00755 32-349, looked up) Protein Wnt-7a: LGASIICNKIPGLAPRQRAICQSRPDAIIVIGEGSQMGLDECQFQFRNGRWNCSALGERTVFGKELKVGSREAAFTYAIIAAGVAHAITAACTQGNLSDCGCDKEKQGQYHRDEGWKWGGCSADIRYGIGFAKVFVDAREIKQNARTLMNLHNNEAGRKILEENMKLECKCHGVSGSCTTKTCWTTLPQFRELGYVLKDKYNEAVHVEPVRASRNKRPTFLKIKKPLSYRKPMDTDLVYIEKSPNYCEEDPVTGSVGTQGRACNKTAPQASGCDLMCCGRGYNTHQYARVWQCNCKFHWCCYVKCNTCSERTEMYTCK |  |  | block/reduce the cell death | axon degeneration / reduction of microtubule staining (Tuj1) (cortical neurons; 5 um pseudosubstrate peptide): much less degeneration was seen; axons remaining judged by Tuj1 staining (cortical neurons; 10 um pseudosubstrate peptide): more axons still remain
6 | sFPR2: a Wnt inhibitor, secreted Frizzled-related protein (protein, UniProt Q96HF1 25-295, looked up) Secreted frizzled-related …: LFLFGQPDFSYKRSNCKPIPANLQLCHGIEYQNMRLPNLLGHETMKEVLEQAGAWIPLVMKQCHPDTKKFLCSLFAPVCLDDLDETIQPCHSLCVQVKDRCAPVMSAFGFPWPDMLECDRFPQDNDLCIPLASSDHLLPATEEAPKVCEACKNKNDDDNDIMETLCKNDFALKIKVKEITYINRDTKIILETKSKTIYKLNGVSERDLKKSVLWLKDSLQCTCEEMNDINAPYLVMGQKQGGELVITSVKRWQKGQREFKRISRSIRKLQC |  | eliminated asymmetric distribution of β-catenin |  | 
